Experimental data taken from patent publication US20140302063A1 (SECRETARY OF STATE FOR HEALTH, published 2014).

B1: R1a-A5 (VHH)
VHH: QVQLVESGGGLVQPGGSLRLSCSASGSAVLFSTYPMSWYRQAPGKQRELVAAVTTDGSTSYADYAKGRFTISRDNAKNTVYLQMNSLKPEDTAVYYCNARDGFFNRYDYWGQGTQVTVSS
B2: R2a-E8 (VHH)
VHH: QLQLVESGGGLVQPGGSLRLSCTASGDIFVMYMIDWYRQAPGKQRELVASIDGRGTPMYADSVKGRFTISRDNAKNTVYLQMNSLKPEDTAVYSCHAKSPLVDNEYWGQGTQVTVSS
B3: R1a-G6 (VHH)
VHH: QVQLVESGGGLVQSGGSLRLSCAASGSMSRIITMGWYRQAPGMERELVAVIGNNDNTVYGDSVQGRFTVSRDNAKNTAYLQMNSLNAEDTAMYYCKISTLTPPHEYWGQGTQVTVSS
B4: R2a-F9 (VHH)
VHH: QVQLVESGGGLVQPGGSLRLSCSASGSISSIVTMGWYRQAPGKERELVAVIGNYGNTNYADSVKGRFTVSRDNAKNTVYLQMNSLNVEDTAMYVCKFSSTVAPHEYWGQGTQVTVSS
B5: R2a-B9 (VHH)
VHH: QVQLVESGGGLVQPGGSLRLSCAASGSAFSINAMGWYRQAPGEEREFVAAITAGGNTYYADSAKARFTISRDNAKNMLYLQMNSLKPEDTAMYYCAATKAFGIATITADYELWGQGTQVTVSS
B6: R1a-E5 (VHH)
VHH: QLQLVESGGGLVQPGGSLRLSCTASGFSLDNYAIGWFRRAPGEEREGVSFITSTSAVTKYADSVKGRFTISRDNAKNTVYLQMTSLKPEDTAVYYCAGTRWVPTMKADEYNYWGQGTQVTVSS
B7: R2b-D8 (VHH)
VHH: QVQLVESGGGLVQPGGSLRLSCAASGFTFSWYDVGWYRRAPGKERELVADIASTRGTTNYADSVKGRFTISRDNAKNSVYLQMNSLKPEDTAVYYCNTRRDWRDYWGQGIQVTVSS
B8: R2a-H9 (VHH)
VHH: QVQLVESGGGLVQPGGSLRLSCAASTNIASFYTMGWYRQTPGQQRDVVAVIGNGGNTNYADSVKGRFTISRDGAKNTAHLQMNSLKPEDTDVYYCKASGPGGVILWGQGTQVTVSS
B9: R1a-E6 (VHH)
VHH: QVQLVESGGGLVQPGGSLRLSCAASGFTLGAYAIAWFRQAPGKEREGVSCISPSDSFTEYGDSVKGRFTVSRDNAKNTVYLQMNSLQPEDTAVYYCAADPVCTAGWYRPSRFDLWGQGTQVTVSS
B10: R2a-G9 (VHH)
VHH: QVQLVESGGGLVQPGGSLRLSCAASDNIFSFYTMGWYRQSPGKERELVAVIGNGGNTNYADSVKGRFTISRDNGKNKAHLQMNSLKPEDTAVYYCKASGPGGVEVWGQGTQVTVSS
B11: R1a-B6 (VHH)
VHH: QVQLVESGGGLVQPGGSLRLSCAASGSFFSRYRMGWYRQAPGEQRELVASIAYDGSTSYADPVKGRFTISRDNANTVHLQMYSLKPDDTAVYYCNLDPPGILYWGQGTQVTVSS
B12: R1a-F5 (VHH)
VHH: QLQLVESGGGLVQVGGSLRLSCAASGFPFDGYAIAWFRQAPGKEREGVSCRASDGNTYYAESLKGRLTMSTDNAKNTVYLQMNSLKPEDTAVYYCAAASWVASLWSPSEYDYWGQGTQVTVSS
B13: R2b-E8 (VHH)
VHH: QVQLVESGGGLVQPGGSLRLSCAASGSFFSRYRMGWYRQAPGEQRELVAGITYDDSTNYAGSVKGRFTISRDNAKNTVHLQMNSLKPEDTAVYYCNLNPPGNLYWGQGTQVTVSS
B14: R2a-G8 (VHH)
VHH: QLQLAESGGGLVQAGGSLRLSCAASGSTLNNNAIGWFRQAPGKEREGVSCMNSRDGTTNYADSVKGRFTISRDVAKNTVYLQMNSLKPEDTAVYFCAVKGFAPFLIGCPWGKAEYDYWGQGTQVTVSS
B15: R1a-H6 (VHH)
VHH: QVQLVESGGGLVQAGDSLRLSCTASVLTFSLYRVGWFRQAPGKEREFVAAIDWGDGPTTYADSVKGRFTISRDNAERTAYLQINSLKPEDTAVYYCGAGNTGSSDRSSSYVHWGQGTQVTVSS
B16: R1a-G5 (VHH)
VHH: QLQLVESGGGLVQPGGSLRLSCAASGSISRIVTMGWYRQASGKERELVAVIGNYGNTNYADSVKGRFTVSRDNAKDTAYLQMNGLNVEDTAIYYCKTSTTTPPYEYWGQGTQVTVSS
B17: R1a-F4 (VHH)
VHH: QVQLVESGGGLVQPGGSLRLSCAASGSISRIVTMGWYRQGPGKERELVAVIGNYGNTNYADSVKGRFTVSRDNAKDTAYLQMNNLNVEDTAMYYCKCSTTTPPHEFWGQGTQVTVSS
B18: R1a-C5 (VHH)
VHH: QVQLVESGGGLVQPGGSLRLSCAASNDIFSFYTMGWYLQAIGKQREPVAVIGNGGNTNYAESVKGRFTISRDGAKNTAYLQMNSLKPEDTAVYYCMASGPGGLNVWGQGTQVTVSS
B19: R2b-D9 (VHH)
VHH: QVQLVESGGGLVQPGGSLRLSCLASGSAFSLYTMGWYRQAPGNQRELVAAITSGESTNYADSVKGRFTISRDNAKNTVYLQMNSLKPEDTAVYYCNADPLSTGWGQYSYWGQGTQVTVSS

Columns and labels:
[1] = target: A/Brisbane/59/2007 (H1N1-like) inactivated viral preparation (Influenza A virus A/Brisbane/59/2007 (H1N1-like)); assay: ELISA, inactivated virus
[2] = target: A/California/7/2009 (H1N1) inactivated viral preparation (Influenza A virus A/California/7/2009 (H1N1)); assay: ELISA, inactivated virus

| Binder | EC50 [1] | EC50 [2] |
| --- | --- | --- |
| B1 | 0.38 µg/mL | 0.31 µg/mL |
| B2 | 1.42 µg/mL | 0.51 µg/mL |
| B3 |  | 0.3 µg/mL |
| B4 |  | 0.19 µg/mL |
| B5 | 9.84 µg/mL | 1 µg/mL |
| B6 |  | 3.23 µg/mL |
| B7 | 14.8 µg/mL |  |
| B8 |  | 0.97 µg/mL |
| B9 |  | 2.46 µg/mL |
| B10 |  | 0.3 µg/mL |
| B11 | 0.58 µg/mL | 0.39 µg/mL |
| B12 | 0.7 µg/mL | 0.55 µg/mL |
| B13 | 18.4 µg/mL | 3.64 µg/mL |
| B14 | 1.86 µg/mL | 4.11 µg/mL |
| B15 |  | 3.85 µg/mL |
| B16 | 0.29 µg/mL | 1.73 µg/mL |
| B17 |  | 0.79 µg/mL |
| B18 | 3.3 µg/mL | 1.71 µg/mL |
| B19 | 0.8 µg/mL | 0.9 µg/mL |
